Experimental data reported in publication PMC7894019.

Target: ZNF191 (purified recombinant) (UniProt P17028 1-368)
Test: EMSA

Chain of ZNF191 (purified recombinant) (P17028 whole entry): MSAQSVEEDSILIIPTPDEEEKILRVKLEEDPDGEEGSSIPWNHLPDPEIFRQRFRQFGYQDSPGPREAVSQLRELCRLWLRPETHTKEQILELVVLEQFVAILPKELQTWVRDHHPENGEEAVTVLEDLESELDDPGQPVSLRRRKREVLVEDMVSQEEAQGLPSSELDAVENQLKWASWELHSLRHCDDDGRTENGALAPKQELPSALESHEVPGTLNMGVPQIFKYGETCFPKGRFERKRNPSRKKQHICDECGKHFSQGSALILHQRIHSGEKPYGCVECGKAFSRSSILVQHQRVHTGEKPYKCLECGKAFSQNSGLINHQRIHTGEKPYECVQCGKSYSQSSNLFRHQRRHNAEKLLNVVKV

Binder | binding result
WNT8BP(nt-1178) (dsDNA) DNA 1: GATTATCATGCATTCATTGTATGCCTGTAT DNA 2: ATACAGGCATACAATGAATGCATGATAATC | binds
WNT8BP(nt-1491) (dsDNA) DNA 1: GTGAATTTGTGTATTAATTCTTTATTTTCT DNA 2: AGAAAATAAAGAATTAATACACAAATTCAC | binds
